The chains are these.
T1: human RXFP1 receptor (human, UniProt Q9HBX9 1-757)
T1 sequence (looked up): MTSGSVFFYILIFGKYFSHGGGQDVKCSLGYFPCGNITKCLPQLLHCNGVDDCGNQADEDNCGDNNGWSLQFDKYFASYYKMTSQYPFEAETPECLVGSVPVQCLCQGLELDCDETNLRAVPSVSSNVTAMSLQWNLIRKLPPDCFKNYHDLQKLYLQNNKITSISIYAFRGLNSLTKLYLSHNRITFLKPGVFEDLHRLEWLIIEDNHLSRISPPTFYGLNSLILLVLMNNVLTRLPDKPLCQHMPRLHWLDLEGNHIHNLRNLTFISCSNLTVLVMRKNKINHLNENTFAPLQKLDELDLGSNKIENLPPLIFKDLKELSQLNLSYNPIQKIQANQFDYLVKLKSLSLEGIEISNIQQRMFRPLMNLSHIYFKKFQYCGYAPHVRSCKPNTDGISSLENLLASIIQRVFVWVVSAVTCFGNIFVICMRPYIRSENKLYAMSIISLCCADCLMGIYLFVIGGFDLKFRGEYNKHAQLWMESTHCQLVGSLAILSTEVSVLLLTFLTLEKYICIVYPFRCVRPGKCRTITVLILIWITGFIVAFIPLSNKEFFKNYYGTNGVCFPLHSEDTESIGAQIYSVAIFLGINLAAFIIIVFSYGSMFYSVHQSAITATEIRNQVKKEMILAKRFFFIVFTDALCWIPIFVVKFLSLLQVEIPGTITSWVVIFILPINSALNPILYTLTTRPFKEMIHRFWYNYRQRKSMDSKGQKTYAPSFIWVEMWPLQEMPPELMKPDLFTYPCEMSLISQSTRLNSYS

B1: AQ1-PEG36-Glu-C13-COOH (ligand)
chain 1: XLYSALANKCCHVGCTKRSLARFC
chain 2: ASWMEEVIKLCGRELVRAQIAICGMSTWS
modifications: not fully specified; pAcF (para-acetyl-L-phenylalanine) at position 1, oxime-linked to PK enhancer PEG36-Glu-C13-COOH
B2: AQ1-Glu-C13-COOH (ligand)
chain 1: XLYSALANKCCHVGCTKRSLARFC
chain 2: ASWMEEVIKLCGRELVRAQIAICGMSTWS
modifications: not fully specified; pAcF (para-acetyl-L-phenylalanine) at position 1, oxime-linked to PK enhancer Glu-C13-COOH
B3: AQ1-PEG36-Glu-C13-CH3 (ligand)
chain 1: XLYSALANKCCHVGCTKRSLARFC
chain 2: ASWMEEVIKLCGRELVRAQIAICGMSTWS
modifications: not fully specified; pAcF (para-acetyl-L-phenylalanine) at position 1, oxime-linked to PK enhancer PEG36-Glu-C13-CH3

This test addresses T1, human RXFP1 receptor. As to the kind of experiment: cell-based or functional assay.
For B1, the “hRXFP1/CHO-K1 cAMP EC50 (nM, avg)” value stood at 0.25 nM. In the case of B2, the “hRXFP1/CHO-K1 cAMP EC50 (nM, avg)” value was 0.18 nM. Turning to B3, the “hRXFP1/CHO-K1 cAMP EC50 (nM, avg)” value worked out at 0.15 nM.

For the origin of these results see patent US20220211812A1 (Bristol-Myers Squibb, published 2022).
